Here are results for 85 substances from the Human Domainome abundance scans (Beltran et al. 2025).

± gives the uncertainty stated by the source.

This data set in a line: abundance fitness (aPCA) (normalised: wild type 0, dead -1); higher = more abundant; growth selection in yeast, the domain comes from the species named. As to conditions: Homo sapiens.
Substance “BAG family molecular chaperone regulator 3 V54I, O95817” returned an abundance fitness of -0.335 ± 0.13. Regarding “BAG family molecular chaperone regulator 3 V54K, O95817”, the abundance fitness is -0.008 ± 0.14. Next, “BAG family molecular chaperone regulator 3 V54L, O95817”: 0.369 ± 0.097.

For “BAG family molecular chaperone regulator 3 V54M, O95817”, the abundance fitness was found to be 0.19 ± 0.22.

With “BAG family molecular chaperone regulator 3 V54P, O95817”, the abundance fitness is -0.832 ± 0.42.

Take “BAG family molecular chaperone regulator 3 V54Q, O95817”: the abundance fitness was -0.084 ± 0.23. “BAG family molecular chaperone regulator 3 V54R, O95817” yielded an abundance fitness of -0.083 ± 0.081. Next, “BAG family molecular chaperone regulator 3 V54S, O95817”: -0.13 ± 0.13.

The substance “BAG family molecular chaperone regulator 3 V54W, O95817” displayed an abundance fitness of -0.961 ± 0.37. “BAG family molecular chaperone regulator 3 V54Y, O95817”: the abundance fitness is -0.376 ± 0.25. The substance “BAG family molecular chaperone regulator 3 W26A, O95817” registered an abundance fitness of -0.534 ± 0.092.

For the substance “BAG family molecular chaperone regulator 3 W26D, O95817”, the abundance fitness was -0.621 ± 0.37. Consider “BAG family molecular chaperone regulator 3 W26E, O95817”, for which the abundance fitness is -0.885 ± 0.25. In the case of “BAG family molecular chaperone regulator 3 W26F, O95817” it was 0.4 ± 0.21; in that of “BAG family molecular chaperone regulator 3 W26G, O95817”, -0.653 ± 0.17. As to “BAG family molecular chaperone regulator 3 W26H, O95817”, the abundance fitness is -0.362 ± 0.069. Take “BAG family molecular chaperone regulator 3 W26I, O95817”: the abundance fitness was -0.608 ± 0.34. For the substance “BAG family molecular chaperone regulator 3 W26K, O95817”, the abundance fitness was 0.189 ± 0.081. “BAG family molecular chaperone regulator 3 W26L, O95817” yielded an abundance fitness of -0.583 ± 0.14.

“BAG family molecular chaperone regulator 3 W26M, O95817” displayed an abundance fitness of -0.721 ± 0.2. On to “BAG family molecular chaperone regulator 3 W26P, O95817”, for which the abundance fitness was -0.892 ± 0.39. For “BAG family molecular chaperone regulator 3 W26Q, O95817”, the abundance fitness is -0.641 ± 0.33. “BAG family molecular chaperone regulator 3 W26R, O95817” had an abundance fitness of -0.228 ± 0.1.

“BAG family molecular chaperone regulator 3 W26S, O95817” showed an abundance fitness of -0.381 ± 0.12. Substance “BAG family molecular chaperone regulator 3 W26T, O95817” displayed an abundance fitness of -0.335 ± 0.074. “BAG family molecular chaperone regulator 3 W26V, O95817” came in with an abundance fitness of -0.467 ± 0.2. “BAG family molecular chaperone regulator 3 W26Y, O95817” came in with an abundance fitness of -0.326 ± 0.48.

“BAG family molecular chaperone regulator 3 W36A, O95817” displayed an abundance fitness of 0.844 ± 0.49. “BAG family molecular chaperone regulator 3 W36E, O95817” came in with an abundance fitness of 1.43 ± 0.23.

In the case of “BAG family molecular chaperone regulator 3 W36G, O95817”, the abundance fitness came to 0.48 ± 0.35. “BAG family molecular chaperone regulator 3 W36K, O95817” had an abundance fitness of 1.09 ± 0.12. Substance “BAG family molecular chaperone regulator 3 W36R, O95817” displayed an abundance fitness of 0.623 ± 0.3.

In turn, “BAG family molecular chaperone regulator 3 W36S, O95817” yielded an abundance fitness of 1.56 ± 0.45. Next, “BAG family molecular chaperone regulator 3 W36T, O95817”: 1.25 ± 0.32; “BAG family molecular chaperone regulator 3 W36V, O95817”: 1.02 ± 0.24; “BAG family molecular chaperone regulator 3 W49C, O95817”: -0.634 ± 0.29.

As for “BAG family molecular chaperone regulator 3 W49D, O95817”, the abundance fitness was -0.572 ± 0.44. On to “BAG family molecular chaperone regulator 3 W49E, O95817”, for which the abundance fitness was -0.221 ± 0.12. “BAG family molecular chaperone regulator 3 W49F, O95817” had an abundance fitness of -0.227 ± 0.42. With “BAG family molecular chaperone regulator 3 W49G, O95817”, the abundance fitness was -0.748 ± 0.15. Next, “BAG family molecular chaperone regulator 3 W49L, O95817”: -0.588 ± 0.081; “BAG family molecular chaperone regulator 3 W49M, O95817”: -0.21 ± 0.18. “BAG family molecular chaperone regulator 3 W49N, O95817” registered an abundance fitness of -0.204 ± 0.34. With “BAG family molecular chaperone regulator 3 W49P, O95817”, the abundance fitness is -0.72 ± 0.25. In the case of “BAG family molecular chaperone regulator 3 W49Q, O95817” it was -0.764 ± 0.42. “BAG family molecular chaperone regulator 3 W49R, O95817” displayed an abundance fitness of -0.226 ± 0.1. Turning to “BAG family molecular chaperone regulator 3 W49S, O95817”, the abundance fitness is -0.436 ± 0.12. For “BAG family molecular chaperone regulator 3 W49V, O95817”, the abundance fitness was -0.665 ± 0.13. For “SAFB-like transcription modulator D24A, Q9NWH9”, the abundance fitness is -0.217 ± 0.033. With “SAFB-like transcription modulator D24C, Q9NWH9”, the abundance fitness was -0.226 ± 0.036.

As to “SAFB-like transcription modulator D24E, Q9NWH9”, the abundance fitness was -0.003 ± 0.038. “SAFB-like transcription modulator D24F, Q9NWH9” returned an abundance fitness of -0.466 ± 0.033. Regarding “SAFB-like transcription modulator D24G, Q9NWH9”, the abundance fitness was -0.282 ± 0.03.

In turn, “SAFB-like transcription modulator D24H, Q9NWH9” yielded an abundance fitness of -0.145 ± 0.034.

Substance “SAFB-like transcription modulator D24I, Q9NWH9” yielded an abundance fitness of -0.693 ± 0.035. As to “SAFB-like transcription modulator D24K, Q9NWH9”, the abundance fitness was -0.157 ± 0.034. Next, “SAFB-like transcription modulator D24M, Q9NWH9”: -0.229 ± 0.036; “SAFB-like transcription modulator D24N, Q9NWH9”: -0.098 ± 0.034; “SAFB-like transcription modulator D24P, Q9NWH9”: -0.598 ± 0.033.

“SAFB-like transcription modulator D24Q, Q9NWH9” registered an abundance fitness of -0.076 ± 0.037.

“SAFB-like transcription modulator D24R, Q9NWH9”: the abundance fitness is -0.335 ± 0.033.

Take “SAFB-like transcription modulator D24S, Q9NWH9”: the abundance fitness is -0.149 ± 0.032. For the substance “SAFB-like transcription modulator D24T, Q9NWH9”, the abundance fitness was -0.157 ± 0.033. In the case of “SAFB-like transcription modulator D24V, Q9NWH9” it was -0.547 ± 0.033. In the case of “SAFB-like transcription modulator D24W, Q9NWH9” it was -0.484 ± 0.039; in that of “SAFB-like transcription modulator D24Y, Q9NWH9”, -0.433 ± 0.034. “SAFB-like transcription modulator D29A, Q9NWH9” showed an abundance fitness of -0.681 ± 0.25.

For the substance “SAFB-like transcription modulator D29C, Q9NWH9”, the abundance fitness is -0.854 ± 0.22. On to “SAFB-like transcription modulator D29E, Q9NWH9”, for which the abundance fitness is -0.5 ± 0.13.

In turn, “SAFB-like transcription modulator D29G, Q9NWH9” came in with an abundance fitness of -0.725 ± 0.096. As to “SAFB-like transcription modulator D29I, Q9NWH9”, the abundance fitness was -1.09 ± 0.43. The substance “SAFB-like transcription modulator D29K, Q9NWH9” displayed an abundance fitness of -1.06 ± 0.33.

“SAFB-like transcription modulator D29M, Q9NWH9” came in with an abundance fitness of -0.081 ± 0.13. The substance “SAFB-like transcription modulator D29N, Q9NWH9” yielded an abundance fitness of -0.483 ± 0.063.

In turn, “SAFB-like transcription modulator D29P, Q9NWH9” yielded an abundance fitness of -0.656 ± 0.097.

With “SAFB-like transcription modulator D29Q, Q9NWH9”, the abundance fitness was -0.084 ± 0.07. On to “SAFB-like transcription modulator D29S, Q9NWH9”, for which the abundance fitness is -0.755 ± 0.19. Turning to “SAFB-like transcription modulator D29T, Q9NWH9”, the abundance fitness is -0.509 ± 0.12.

For “SAFB-like transcription modulator D29V, Q9NWH9”, the abundance fitness is -0.717 ± 0.09. The substance “SAFB-like transcription modulator D29W, Q9NWH9” yielded an abundance fitness of -0.882 ± 0.18. For the substance “SAFB-like transcription modulator D29Y, Q9NWH9”, the abundance fitness is -0.677 ± 0.089. Turning to “SAFB-like transcription modulator D40A, Q9NWH9”, the abundance fitness was -0.2 ± 0.046. “SAFB-like transcription modulator D40C, Q9NWH9”: the abundance fitness is -0.594 ± 0.12. In turn, “SAFB-like transcription modulator D40E, Q9NWH9” displayed an abundance fitness of -0.318 ± 0.086. In the case of “SAFB-like transcription modulator D40F, Q9NWH9” it was -1 ± 0.39.
